The results in this text go back to paper doi:10.1101/2020.12.21.423144 (bioRxiv, 2020).

Positions count from the first letter of the chain named. Numbers in names are those of the source. Entries after “also recorded” stand apart in the source; their conditions may differ.

B1: A2AR-N359ΔC with the ERR:AAA mutations (domain or fragment)
chain: MPIMGSSVYITVELAIAVLAILGNVLVCWAVWLNSNLQNVTNYFVVSLAAADIAVGVLAIPFAITISTGFCAACHGCLFIACFVLVLTQSSIFSLLAIAIDRYIAIRIPLRYNGLVTGTRAKGIIAICWVLSFAIGLTPMLGWNNCGQPKEGKNHSQGCGEGQVACLFEDVVPMNYMVYFNFFACVLVPLLLMLGVYLRIFLAARRQLKQMESQPLPGERARSTLQKEVHAAKSLAIIVGLFALCWLPLHIINCFTFFCPDCSHAPLWLMYLAIVLSHTNSVVNPFIYAYRIREFRQTFRKIIRSHVLRQQEPFKAAGTSARVLAAHGSDGEQVSLRLNGHPPGVWANGSAPHPAAAPN
B2: A2AR-P395ΔC (domain or fragment)
chain: MPIMGSSVYITVELAIAVLAILGNVLVCWAVWLNSNLQNVTNYFVVSLAAADIAVGVLAIPFAITISTGFCAACHGCLFIACFVLVLTQSSIFSLLAIAIDRYIAIRIPLRYNGLVTGTRAKGIIAICWVLSFAIGLTPMLGWNNCGQPKEGKNHSQGCGEGQVACLFEDVVPMNYMVYFNFFACVLVPLLLMLGVYLRIFLAARRQLKQMESQPLPGERARSTLQKEVHAAKSLAIIVGLFALCWLPLHIINCFTFFCPDCSHAPLWLMYLAIVLSHTNSVVNPFIYAYRIREFRQTFRKIIRSHVLRQQEPFKAAGTSARVLAAHGSDGEQVSLRLNGHPPGVWANGSAPHPERRPNGYALGLVSGGSAQESQGNTGLPDVELLSHELKGVCP
B3: A2AR-P354ΔC (domain or fragment)
chain: MPIMGSSVYITVELAIAVLAILGNVLVCWAVWLNSNLQNVTNYFVVSLAAADIAVGVLAIPFAITISTGFCAACHGCLFIACFVLVLTQSSIFSLLAIAIDRYIAIRIPLRYNGLVTGTRAKGIIAICWVLSFAIGLTPMLGWNNCGQPKEGKNHSQGCGEGQVACLFEDVVPMNYMVYFNFFACVLVPLLLMLGVYLRIFLAARRQLKQMESQPLPGERARSTLQKEVHAAKSLAIIVGLFALCWLPLHIINCFTFFCPDCSHAPLWLMYLAIVLSHTNSVVNPFIYAYRIREFRQTFRKIIRSHVLRQQEPFKAAGTSARVLAAHGSDGEQVSLRLNGHPPGVWANGSAPHP
B4: A2AR-G349ΔC (domain or fragment)
chain: MPIMGSSVYITVELAIAVLAILGNVLVCWAVWLNSNLQNVTNYFVVSLAAADIAVGVLAIPFAITISTGFCAACHGCLFIACFVLVLTQSSIFSLLAIAIDRYIAIRIPLRYNGLVTGTRAKGIIAICWVLSFAIGLTPMLGWNNCGQPKEGKNHSQGCGEGQVACLFEDVVPMNYMVYFNFFACVLVPLLLMLGVYLRIFLAARRQLKQMESQPLPGERARSTLQKEVHAAKSLAIIVGLFALCWLPLHIINCFTFFCPDCSHAPLWLMYLAIVLSHTNSVVNPFIYAYRIREFRQTFRKIIRSHVLRQQEPFKAAGTSARVLAAHGSDGEQVSLRLNGHPPGVWANG
B5: A2AR-G344ΔC (domain or fragment)
chain: MPIMGSSVYITVELAIAVLAILGNVLVCWAVWLNSNLQNVTNYFVVSLAAADIAVGVLAIPFAITISTGFCAACHGCLFIACFVLVLTQSSIFSLLAIAIDRYIAIRIPLRYNGLVTGTRAKGIIAICWVLSFAIGLTPMLGWNNCGQPKEGKNHSQGCGEGQVACLFEDVVPMNYMVYFNFFACVLVPLLLMLGVYLRIFLAARRQLKQMESQPLPGERARSTLQKEVHAAKSLAIIVGLFALCWLPLHIINCFTFFCPDCSHAPLWLMYLAIVLSHTNSVVNPFIYAYRIREFRQTFRKIIRSHVLRQQEPFKAAGTSARVLAAHGSDGEQVSLRLNGHPPG
B6: A2AR-Q372ΔC (domain or fragment)
chain: MPIMGSSVYITVELAIAVLAILGNVLVCWAVWLNSNLQNVTNYFVVSLAAADIAVGVLAIPFAITISTGFCAACHGCLFIACFVLVLTQSSIFSLLAIAIDRYIAIRIPLRYNGLVTGTRAKGIIAICWVLSFAIGLTPMLGWNNCGQPKEGKNHSQGCGEGQVACLFEDVVPMNYMVYFNFFACVLVPLLLMLGVYLRIFLAARRQLKQMESQPLPGERARSTLQKEVHAAKSLAIIVGLFALCWLPLHIINCFTFFCPDCSHAPLWLMYLAIVLSHTNSVVNPFIYAYRIREFRQTFRKIIRSHVLRQQEPFKAAGTSARVLAAHGSDGEQVSLRLNGHPPGVWANGSAPHPERRPNGYALGLVSGGSAQ
B7: A2AR-V334ΔC (domain or fragment)
chain: MPIMGSSVYITVELAIAVLAILGNVLVCWAVWLNSNLQNVTNYFVVSLAAADIAVGVLAIPFAITISTGFCAACHGCLFIACFVLVLTQSSIFSLLAIAIDRYIAIRIPLRYNGLVTGTRAKGIIAICWVLSFAIGLTPMLGWNNCGQPKEGKNHSQGCGEGQVACLFEDVVPMNYMVYFNFFACVLVPLLLMLGVYLRIFLAARRQLKQMESQPLPGERARSTLQKEVHAAKSLAIIVGLFALCWLPLHIINCFTFFCPDCSHAPLWLMYLAIVLSHTNSVVNPFIYAYRIREFRQTFRKIIRSHVLRQQEPFKAAGTSARVLAAHGSDGEQV
B8: A2AR-C394M (receptor)
chain: MPIMGSSVYITVELAIAVLAILGNVLVCWAVWLNSNLQNVTNYFVVSLAAADIAVGVLAIPFAITISTGFCAACHGCLFIACFVLVLTQSSIFSLLAIAIDRYIAIRIPLRYNGLVTGTRAKGIIAICWVLSFAIGLTPMLGWNNCGQPKEGKNHSQGCGEGQVACLFEDVVPMNYMVYFNFFACVLVPLLLMLGVYLRIFLAARRQLKQMESQPLPGERARSTLQKEVHAAKSLAIIVGLFALCWLPLHIINCFTFFCPDCSHAPLWLMYLAIVLSHTNSVVNPFIYAYRIREFRQTFRKIIRSHVLRQQEPFKAAGTSARVLAAHGSDGEQVSLRLNGHPPGVWANGSAPHPERRPNGYALGLVSGGSAQESQGNTGLPDVELLSHELKGVMPEPPGLDDPLAQDGAGVS
B9: A2AR-FL-ERR:AAA (receptor)
chain: B8 chain with E355A, R356A, R357A, M394C
B10: A2AR-C394A (receptor)
chain: B8 chain with M394A
B11: A2AR-C394L (receptor)
chain: B8 chain with M394L
B12: A2AR-C394V (receptor)
chain: B8 chain with M394V
B13: A2AR-C394S (receptor)
chain: B8 chain with M394S
B14: A2AR-N359ΔC (protein)
chain: B1 chain with A355E, A356R, A357R
B15: human adenosine A2A receptor, full-length wild type (receptor)
chain: B8 chain with M394C

The first series concerns the molecule itself. The series can be described thus: SEC.
On to B1, for which the “dimer level (relative to monomer)” value was 0.48 arbitrary units. Regarding B2, the binding result is “binds”. Turning to B3, the “dimer level (relative to monomer)” value came to 0.19 arbitrary units.

As for B4, the binding result is recorded as “binds”. The same measure, in the same setting: under B5 stands “binds”; under B6, “binds”; under B7, “binds”.

B8: the binding result is on record as “binds”. Take B9: the “dimer level (relative to monomer)” value was determined as 0.29 arbitrary units.

Consider B10, for which the binding result is “binds”.

Regarding B11, the binding result was “binds”. With B12, the binding result is recorded as “binds”. Same read-out and setting: then B13, with “binds”.

The target of another series is P29274. Kind of series: SEC.
As for B14, the “HMW oligomer level (relative to monomer)” value was “ctrl: 0.68”; the “total oligomer level (HMW oligomer and dimer, relative to monomer)” value is “ctrl: 1.01”. The matching figures for B1: “ERR:AAA: 0.38” and “ERR:AAA: 0.85”.

For B15, the “HMW oligomer level (relative to monomer)” value is given as “ctrl: 0.88”; the “total oligomer level (HMW oligomer and dimer, relative to monomer)” value was “ctrl: 1.37; also recorded: WT: 1.34”. The corresponding values for B9 are “ERR:AAA: 0.66” and “ERR:AAA: 0.94”.

Another series deals with the molecule itself. The series can be described thus: SDS-PAGE and Western blot densitometry. Background: In western blotting, separated proteins are transferred to a membrane and probed.
Turning to B15, the “dimer level (relative to monomer), with 5 mM TCEP” value is 0.51 arbitrary units and the “dimer level (relative to monomer), without TCEP” value is 1.14 arbitrary units.
